Reference: patent US20260217797A1

Legend:
[1] = molecular target: SARS-CoV-2 B.1.617.1 (Kappa) RBD (SARS-CoV-2) (UniProt P0DTC2); assay: Octet BLI single point, monovalent
[2] = molecular target: SARS-CoV-2 B.1.617.2 (Delta) RBD (SARS-CoV-2) (UniProt P0DTC2); assay: Octet BLI single point, monovalent
[3] = molecular target: SARS-CoV-2 Gamma (P.1) spike protein (on reporter virus particles) (SARS-CoV-2) (UniProt P0DTC2); assay: cell-based or functional assay
[4] = molecular target: SARS-CoV-2 Epsilon (B.1.427/429) spike protein (on reporter virus particles) (SARS-CoV-2) (UniProt P0DTC2); assay: cell-based or functional assay
[5] = molecular target: SARS-CoV-2 Beta (B.1.351) spike protein (on reporter virus particles) (SARS-CoV-2) (UniProt P0DTC2); assay: cell-based or functional assay
[6] = molecular target: SARS-CoV-2 Alpha (B.1.1.7) spike protein (on reporter virus particles) (SARS-CoV-2) (UniProt P0DTC2); assay: cell-based or functional assay
[7] = molecular target: SARS-CoV-2 B.1.351 (Beta) RBD (SARS-CoV-2) (UniProt P0DTC2); assay: Octet BLI single point, monovalent
[8] = molecular target: SARS-CoV-2 P.1 Spike (Gamma) (SARS-CoV-2) (UniProt P0DTC2); assay: Octet BLI single point, monovalent

Substance	Kd [1] [nM]	Kd [2] [nM]	PsV neutralization IC50 [3] [µg/mL]	PsV neutralization IC90 [3] [µg/mL]	PsV neutralization IC50 [4] [µg/mL]	PsV neutralization IC90 [4] [µg/mL]	PsV neutralization IC50 [5] [µg/mL]	PsV neutralization IC90 [5] [µg/mL]	PsV neutralization IC50 [6] [µg/mL]	PsV neutralization IC90 [6] [µg/mL]	Kd [7] [nM]	Kd [8] [nM]
RGN10933 (antibody)	12	2.7	3.89	16.2	0.0074	0.058	0.897	8.28	0.0064	0.081	–	–
RGN10987 (antibody)	3.05	9.65	–	–	–	–	–	–	–	–	15	12.5
